Experimental findings from patent US20200031893 are described below.

In data set [1] the test system is proNGF mutant SP174-101 (protease cleavage site mutated to VSAR).
Sequence of proNGF mutant SP174-101 (protease cleavage site mutated to VSAR) (chain, as listed by the source mutant): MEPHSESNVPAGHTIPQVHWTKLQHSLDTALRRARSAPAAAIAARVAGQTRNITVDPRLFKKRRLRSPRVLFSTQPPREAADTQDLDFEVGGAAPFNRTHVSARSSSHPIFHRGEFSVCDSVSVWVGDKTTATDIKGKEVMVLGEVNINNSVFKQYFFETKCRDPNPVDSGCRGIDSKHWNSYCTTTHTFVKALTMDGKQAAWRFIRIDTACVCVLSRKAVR

Sequence of human wild-type proNGF (chain, as listed by the source): as the sequence (chain, as listed by the source mutant) above, with V101R, A103K counted along it

For the substance Trypsin (Roche, GMP grade), in data set [1], the % ProNGF remaining after tryptic digestion, Trypsin/ProNGF ratio 1/10000 (HPLC-UV) was determined as 1.9%; the % betaNGF (cleavage yield) after tryptic digestion, Trypsin/ProNGF ratio 1/10000 (HPLC-UV) was 84.5%; the “tryptic digestion, trypsin:proNGF 1:10,000 (w/w), 18 h, room temperature, SDS-PAGE” value is “A complete digestion of proNGF mutant to beta-NGF could be observed”. For the same substance, in the data set with human wild-type proNGF, the % ProNGF remaining after tryptic digestion, Trypsin/ProNGF ratio 1/250 (HPLC-UV) was 0%; the % ProNGF remaining after tryptic digestion, Trypsin/ProNGF ratio 1/1000 (HPLC-UV) amounted to 0%; the % ProNGF remaining after tryptic digestion, Trypsin/ProNGF ratio 1/5000 (HPLC-UV) stood at 21.5%; the % ProNGF remaining after tryptic digestion, Trypsin/ProNGF ratio 1/10000 (HPLC-UV) was 67.1%. Besides, in the data set on human wild-type proNGF, the % betaNGF (cleavage yield) after tryptic digestion, Trypsin/ProNGF ratio 1/250 (HPLC-UV) was determined as 67.9%; the % betaNGF (cleavage yield) after tryptic digestion, Trypsin/ProNGF ratio 1/1000 (HPLC-UV) stood at 77.9%; the % betaNGF (cleavage yield) after tryptic digestion, Trypsin/ProNGF ratio 1/5000 (HPLC-UV) stood at 18.6%; the % betaNGF (cleavage yield) after tryptic digestion, Trypsin/ProNGF ratio 1/10000 (HPLC-UV) is 4.6%. In the data set with human wild-type proNGF, the % betaNGF Overdigested Forms after tryptic digestion, Trypsin/ProNGF ratio 1/250 (HPLC-UV) came out at 25.7%; the % betaNGF Overdigested Forms after tryptic digestion, Trypsin/ProNGF ratio 1/1000 (HPLC-UV) came out at 12.9%; the % betaNGF Overdigested Forms after tryptic digestion, Trypsin/ProNGF ratio 1/5000 (HPLC-UV) came out at 6.6%.
